Measured values reported in patent US20070098735A1, “Methods for the Elimination of Pathogens and Other Particulate Agents” (priority 2005, published 2007).

Tests used:
[1] = target: Toll-like receptor-7 (TLR7) (murine) (UniProt P58681); test: cell-based or functional assay
[2] = system: macrophages (TNF-α release); test: TNF-α release by LPS-treated macrophages in presence or absence of serum; type: cell-based; conditions: serum-free conditions
Protocol: HSP70 used in all assays was purified using LPS-free sterile packaged plastic ware, baked glass ware (420° F. for 4 hours) and using endotoxin-free culture grade reagents to minimize inadvertent LPS contamination. Further, LPS levels and activity in the purified HSPs were quantified and confirmed to be <1 EU/mg of protein. Next, HSPs and LPS were compared for their influence on phagocytosis in presence or absence of serum. These conditions were specifically chosen since LPS-binding protein (LBP), an essential mediator for LPS function, is not present in serum-free conditions. As a control, macrophages were treated with LPS in presence or absence of serum and their ability to elicit TNF-α release was compared (FIG. 3A). […] Briefly, macrophages were treated with HSP70 (100 μg/ml) or LPS (different doses ranging 25 ng-1 μg/ml) in serum-free conditions for 1 hour and a phagocytosis assay was performed. […] The error bar is one standard deviation. The results shown are a cumulative analysis of 3 experiments, 3 wells/group.

[3] = system: full thickness surgical wounds on the dorsum of BALB/cJ mice; test: Closure of full thickness surgical wounds, percent wound closure; type: in vivo
Protocol: Surgery and Treatment. Mice were anesthetized using Ketamine (2.0 mg/mouse) and Xylazine (0.1 mg/mouse) were administered intraperitoneally (IP) and the dorsal skin was shaved. After sterile prepping of the area, a full thickness circular wound, 8 mm diameter, was made on the dorsal skin using a disposable biopsy punch (Miltex Inc, York, Pa.) on the midline of the dorsum approximately at the iliac crest. The mice were then randomly assigned into the treatment groups. Initial wound measurements were performed while the mice were still anesthetized. Mice were then treated on days 0, 2, 4, and 6 unless otherwise specified. All agents used as treatment were diluted in 0.5 ml of PBS and injected using a 25-gauge needle in the subcutaneous space in the nape of the neck. The surgical procedures, post-operative monitoring, and safety concerns were approved by the Institutional Animal Care and Usage Committee.
Measurements and Analysis. Wound healing of open wounds is a complex process with many parameters to consider. […] The wound surface area was determined by measuring the craniocaudal and lateromedial distances using vernier calipers in perpendicular axis on days 0, 2, 4, 6, 9, and 11 postoperatively unless noted. Changes in wound area were expressed as percent wound closure. Wound closure data was plotted as average percent wound closure ±SEM unless otherwise noted. All calculations and data analysis were performed using Microsoft Excel and Sigma Plot. Sigma Plot was used to perform Student's t-tests for reported P values.
Full thickness surgical wounds were created on the dorsum of BALB/cJ mice as described in Methods. Wounds were made on day 0. Subsequently, the wounds were treated with exogenous injections of HSP70, HSP90, gp96 (30 μg/dose) or buffer administered subcutaneously (SC) on days 0, 2, 4 and 6 following surgery (FIG. 6A). The wounds were measured on days 0, 2, 4, 6, 9, 11 unless otherwise noted. Wounds were measured serially, percent wound closure was calculated and plotted against time in order to quantitate the rate of healing by secondary intention. […] Data is plotted as average percent wound closure ±SEM on days indicated. Two mice from each treatment group (PBS (n=12), HSP70 (n=11), HSP90 (n=12), and gp96 (n=11)) were sacrificed for histology on days 2, 4, and 6 post-surgery (data not shown). The P values obtain using the Student's t-test.
Results are of average percent wound closure ±SEM on day 2 post surgery. The *P values were obtained using the Student's t-test by comparing HSP treatment to all of the non-HSP control treatments. The least significant P value was reported. […] Doses higher than 50 μg/dose were not tested.

[4] = system: Murine macrophage lines (RAW264.7, J774.A1 or RAW264NO-); test: Phagocytosis assay in vitro (uptake of Alexa Fluor 488-labeled particles); type: cell-based
Protocol: Phagocytosis Assay in vitro. RAW 264.7, RAW264.7 (NO-) and J774A.1 cells were cultured in DMEM or RPMI (RAW NO-) with 10% FCS, harvested, and washed. 3×10^5 cells/well were incubated in serum-free Earle's minimal essential medium (EMEM) in a 24-well plate for 1 hour at 37° C. Alexa Fluor® 488-labeled particles (inert polystyrene microspheres; or yeast, Saccharomyces cerevisiae or Gram-negative bacteria, Escherichia coli, 40 particles/macrophage) were added and co-incubated in a dark environment for 60 minutes in serum free EMEM with or without HSPs, LPS, or control proteins. At the end of 60 minutes incubation, the plate was covered in a dark container on ice. Specific measures were taken to exclude the fluorescence that resulted from particles that were outside of the cell or sticking to the surface of the cell. […] Specifically, trypan blue (0.8 mg/ml) was added for 60 seconds and plates were analyzed immediately using FluorImager SI (Molecular Dynamics/Amersham). Since the emission of Alexa Fluor® 488, about 519 nm at an excitation of about 490 nm, falls within the absorbance range of trypan blue (475-675 nm), the fluorescence of the sample only represents the intracellular fluorescence. External or surface-bound fluorescence is quenched. Using Student's t test, the results were analyzed and P-values were calculated.
HSP-mediated phagocytosis was quantified by measuring the internalized fluorescence measured by FluorImager SI and Relative Mean Fluorescence Intensity (RMFI) was compared between the treatment groups (as indicated). All the treatment groups were compared to medium alone using the Student's t test and significance denoted by P<0.01. The error bar represents one standard deviation. The results shown are a cumulative analysis of 3 experiments, 3 wells/group.

[5] = system: full thickness wounds of naïve mice; test: Adoptive transfer of pre-treated RAW 264.7 macrophages into wounded mice, wound closure; type: in vivo; conditions: 400,000 macrophages pre-treated at 30 μg/dose; day 2 post surgery
Protocol: Macrophage Cell Culture, Pre-treatment, and Adoptive Transfer. RAW 264.7 macrophages (ATCC) were grown as described by ATCC. Cells were harvested by gently scraping them from the cell culture flasks, centrifuged and washed once in cultured grade PBS. […] They were then washed 3 times with PBS, and were re-suspended to achieve a concentration of 400,000, 40,000, or 4,000 cells per 0.5 ml PBS. Adoptive transfer of these cells was performed by subcutaneous injections in the nape of the neck using a 25-gauge needle in mice that were wounded as previously described. Adoptive transfers were given on days 0, 2 and 4 post-operatively.
Macrophages were treated in vitro with either HSPs or non-HSP controls and transferred into naïve wounded mice (as described in Materials and Methods) to test if HSPs could in part mediate some of their activity through macrophages. […] Data is plotted as average percent wound closure ±SEM on day 2. *P values were obtained using the Student's t-test by comparing HSP treatment to all of the non-HSP control treatments. The least significant P value was reported.
Titratability of adoptive transfer was examined by transferring 4,000, 40,000 or 400,000 macrophages pre-treated as described in Materials and Methods.

[6] = system: RAW 264.7 macrophages; test: In vitro macrophage phagocytosis of wound debris; type: cell-based, murine; conditions: RAW264.7, labeled wound debris
[7] = system: TNF-α; test: Wound lysate cytokine production (cytometric bead assay), TNF-α; type: in vivo, mice; conditions: SC 30 μg dose
Protocol: Wound and Skin Lysate Cytokine Production. Mice were wounded and treated as stated previously. Wounds were harvested 24 hours after treatment, pulverized in 5 ml of PBS and large debris was removed by straining the wound lysate through a […] mesh strainer. The soluble fraction was then centrifuged for 20 minutes at 14,000 rpm. Protein concentration was then assessed by Bradford assay. Skin samples were taken and processed in the same manner. 250 μg of each sample was then tested for the presence of monocyte chemotactic peptide-1 (MCP-1), tumor necrosis factor-α (TNF-α), and interleukin 6 (IL-6) using the BD Biosciences cytometric bead assay (CBA) mouse inflammatory kit (BD Biosciences Pharmingen, San Diego, and CA.) following the manufacture's protocol.
The wounds were lysed and MCP-1, TNFα and IL-6 levels were quantified (pg/ml of 250 μg of protein). Each sample was tested in duplicate. *P values are the significant difference of cytokines found in wound lysate compared to skin lysate in a treatment group. **P values are the significant differences of cytokines found in PBS treated mice wound lysate compared to the treatment group wound lysate.

Chain of Toll-like receptor-7 (TLR7) (murine) (P58681 27-1050): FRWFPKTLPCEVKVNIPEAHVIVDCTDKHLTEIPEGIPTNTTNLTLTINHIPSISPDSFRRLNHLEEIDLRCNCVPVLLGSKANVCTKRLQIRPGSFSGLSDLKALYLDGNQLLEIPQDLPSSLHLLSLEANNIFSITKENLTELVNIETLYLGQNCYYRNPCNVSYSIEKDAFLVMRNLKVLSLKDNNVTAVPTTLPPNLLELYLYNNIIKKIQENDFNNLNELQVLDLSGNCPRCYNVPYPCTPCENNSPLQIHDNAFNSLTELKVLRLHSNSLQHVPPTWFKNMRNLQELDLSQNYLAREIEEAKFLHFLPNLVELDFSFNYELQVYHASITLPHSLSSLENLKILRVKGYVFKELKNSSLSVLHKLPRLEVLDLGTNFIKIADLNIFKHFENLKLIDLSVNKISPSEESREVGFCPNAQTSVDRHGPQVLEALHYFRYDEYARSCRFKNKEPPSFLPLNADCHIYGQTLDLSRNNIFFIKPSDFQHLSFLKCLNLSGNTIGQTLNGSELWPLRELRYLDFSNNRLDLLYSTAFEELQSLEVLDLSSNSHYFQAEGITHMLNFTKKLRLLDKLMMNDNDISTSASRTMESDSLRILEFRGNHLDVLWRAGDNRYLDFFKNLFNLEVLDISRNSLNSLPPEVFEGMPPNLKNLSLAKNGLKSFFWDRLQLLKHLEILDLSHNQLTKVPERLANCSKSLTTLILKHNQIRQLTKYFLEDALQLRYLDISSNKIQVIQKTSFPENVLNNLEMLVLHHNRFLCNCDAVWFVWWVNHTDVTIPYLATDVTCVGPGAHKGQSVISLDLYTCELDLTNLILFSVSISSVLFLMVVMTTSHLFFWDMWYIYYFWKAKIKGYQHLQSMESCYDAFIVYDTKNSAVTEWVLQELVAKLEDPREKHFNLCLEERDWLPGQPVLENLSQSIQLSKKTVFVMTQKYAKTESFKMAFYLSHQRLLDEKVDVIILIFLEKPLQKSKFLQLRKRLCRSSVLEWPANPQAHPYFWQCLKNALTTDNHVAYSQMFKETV

HSP70 purified from murine livers (from UniProt P17879 2-642)
decrease in phagocytic activity of RAW264.7 cells treated with HSP70 in the presence of known TLR7-ligands, compared with HSP70 alone [1]: 45 to 65%

lipopolysaccharide [LPS, reference compound]
stimulation of macrophages (TNF-α release) [2]: ineffective at stimulating macrophages
wound healing on day 2 ([3]; 30 μg/dose, day 2 post surgery): 25%
wound closure of non-HSP controls compared to PBS control ([3]; day 2 post surgery): not significantly different to the PBS control
benefit to the wounds ([3]; same doses as HSPs and significantly smaller quantities): not beneficial to the wounds at any of the doses tested
ability to enhance phagocytosis ([4]; serum-free conditions, 1 hour, HSP70 100 μg/ml, LPS 25 ng-1 μg/ml, heating 100° C. for 20 minutes): unable to enhance phagocytosis in serum-free conditions
wound healing on day 2 after adoptive transfer of pre-treated macrophages [5]: 21%
mean fluorescence intensity compared to medium control [6]: not significantly different to the medium control

B1: gp96: heat shock protein (HSP90 family, endoplasmic reticulum) purified from murine livers (protein, UniProt P08113 22-802, looked up)
Endoplasmin: DDEVDVDGTVEEDLGKSREGSRTDDEVVQREEEAIQLDGLNASQIRELREKSEKFAFQAEVNRMMKLIINSLYKNKEIFLRELISNASDALDKIRLISLTDENALAGNEELTVKIKCDKEKNLLHVTDTGVGMTREELVKNLGTIAKSGTSEFLNKMTEAQEDGQSTSELIGQFGVGFYSAFLVADKVIVTSKHNNDTQHIWESDSNEFSVIADPRGNTLGRGTTITLVLKEEASDYLELDTIKNLVRKYSQFINFPIYVWSSKTETVEEPLEEDEAAKEEKEESDDEAAVEEEEEEKKPKTKKVEKTVWDWELMNDIKPIWQRPSKEVEEDEYKAFYKSFSKESDDPMAYIHFTAEGEVTFKSILFVPTSAPRGLFDEYGSKKSDYIKLYVRRVFITDDFHDMMPKYLNFVKGVVDSDDLPLNVSRETLQQHKLLKVIRKKLVRKTLDMIKKIADEKYNDTFWKEFGTNIKLGVIEDHSNRTRLAKLLRFQSSHHSTDITSLDQYVERMKEKQDKIYFMAGSSRKEAESSPFVERLLKKGYEVIYLTEPVDEYCIQALPEFDGKRFQNVAKEGVKFDESEKTKESREATEKEFEPLLNWMKDKALKDKIEKAVVSQRLTESPCALVASQYGWSGNMERIMKAQAYQTGKDISTNYYASQKKTFEINPRHPLIRDMLRRIKEDEDDKTVMDLAVVLFETATLRSGYLLPDTKAYGDRIERMLRLSLNIDPEAQVEEEPEEEPEDTSEDAEDSEQDEGEEMDAGTEEEEEETEKESTEKDEL
modifications: complexed with endogenous peptides
notes: heat shock protein (HSP90 family, endoplasmic reticulum) purified from murine livers
wound closure compared to controls ([3]; 5 μg/dose and 50 μg/dose, day 2): significant wound closure
wound healing at Day 11 ([3]; 30 μg/dose SC on days 0, 2, 4 and 6): completely healed
dose with the most significant difference in wound closure ([3]; doses 5, 30, 50 μg/dose tested): 30 μg/dose
TNF-α content of wounds compared to LPS or MSA [7]: not significantly elevated
TNF-α content of wounds compared to buffer group [7]: significantly increased
uptake of microbial or non-microbial materials as compared to control proteins or buffer ([4]; HSPs 100 μg/ml, P<0.01 vs medium alone): increase in uptake
